Laboratory results published in PMC6491520, “Antimicrobial Peptide LL-37 Facilitates Intracellular Uptake of RNA Aptamer Apt 21-2 Without Inducing an Inflammatory or Interferon Response”.

Columns and labels:
[1] = biological target: T1, LL-37 (cathelicidin antimicrobial peptide) (UniProt P49913 134-170); test: filter binding; apparent KD from 50% loss of free aptamer; 100 nM RNA; 1 h on ice, 100 nM aptamer, 0-100 uM LL-37; binding buffer not stated; EMSA loading with 60 mM KCl, 10 mM Tris pH 7.6, 40% glycerol; 7% native PAGE in TBE; details: label: 5' 32P
T1 chain: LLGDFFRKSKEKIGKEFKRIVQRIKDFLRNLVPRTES

[2] = biological target: T1, LL-37 (cathelicidin antimicrobial …); test: EMSA; apparent KD from 50% loss of free aptamer; 100 nM RNA; 1 h on ice, 100 nM aptamer, 0-100 uM LL-37; binding buffer not stated; EMSA loading with 60 mM KCl, 10 mM Tris pH 7.6, 40% glycerol; 7% native PAGE in TBE; details: label: 5' 32P

Work on GGUCUAGCCGGAGGAGUCAGUAAUCGGUAGACC (XNA, 2'-fluoro C and U) [Apt 21-2] yielded a Kd [1] of roughly 2000 nM and a Kd [2] of roughly 2000 nM.
